Results: the supplement of paper PMC9170038

Test system: MS2 coat protein
Experiment: apparent KD of MS2 coat protein; designed switch direction (-1 OFF switch, 1 ON switch): -1; higher = weaker reporter binding
How it was run: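 Designed RNA switches sharing common flanks were transcribed on Illumina chips by stalled E. coli RNA polymerase. They were titrated with SNAP-549-labelled MS2 coat protein, from 0.7 or 1.5 nM doubling to 3 µM, in Tris-HCl pH 7.5 buffer with KCl, MgCl2, BSA, DTT, tRNA and Tween-20. Titrations ran without input, with 200 uM small-molecule ligand, or with an oligonucleotide input. The apparent KD of each design is the median over its clusters, after curve-fitting of normalised cluster fluorescence.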

[1] = Eterna round: R95, input ligand: microRNA oligo, concentration not stated
[2] = input ligand: microRNA oligo, concentration not stated
[3] = Eterna round: R95, input ligand: FMN 200 uM
[4] = Eterna round: R95, input ligand: none

Sequence | apparent KD of MS2 coat protein (input ligand: FMN 200 uM) | apparent KD of MS2 coat protein (input ligand: none) | apparent KD of MS2 coat protein [1] | apparent KD of MS2 coat protein [2] | apparent KD of MS2 coat protein [3] | apparent KD of MS2 coat protein [4]
GACUUCUCUGAGGAUAUUGCAUCACCCGAUCUAUAAGAAGGCAGAACAUGAGGAUCACCCAUGUGGGUUUCUAG [Bingo-Bango-27] (Eterna round: R97, puzzle: Exclusion 6) | 0.0406 µM | 0.0297 µM |  |  |  | 
CAGUACUGAGGAUAUACAUGAGGAUCACCCAUGUGUUCCAGCUAGGAAUCUAGCAAAAGUAGAAGGCAGUACUG [salish99_ex3_r3_094x] (puzzle: Exclusion 3) |  |  | 0.0253 µM |  |  | 
AAAUCGGUAGAGGAUAUUGUACAGGAAACGGUGCGAGAAGGCUACACAUGAGGAUCACCCAUGUUAAAUAGCGA [EX6 #55] (Eterna round: R97, puzzle: Exclusion 6) | 0.017 µM | 0.0158 µM |  |  |  | 
UUAUUAUAUGUAGGAUAUGCGUAUUAUUGUUAUGCAGAAGGACAUGAGGAUCACCCAUGUAUAUUAUUGUUAUAUAUUAUAUAU [Title] (Eterna round: R96, puzzle: Exclusion NG 1) | 0.0502 µM | 0.0293 µM |  | 0.0193 µM |  | 
UAUUUACAUGAGGAUCACCCAUGUCAGGAUAUGUUUCUAUCGUCGAAAGACGAUAGUUGCAGAAGGGACAAUAU [LRO-Excl01-25 mod derived from EliFisker 4.24] (Eterna round: R97, puzzle: Exclusion 1) | 0.0941 µM | 0.0485 µM |  |  |  | 
GCUGCGCGAGGAUAUGCGGUUCGCGCUGUGGCCCGUGGCGGACAUGAGGAUCACCCAUGUAGAAGGCGUGCGGG [Apr-15 SS2-58] (puzzle: Exclusion 2) |  |  | 0.0103 µM |  |  | 
AUCGUGUGAGGAUAUCGAUGUUGGACGUCUAGGUCUAAGCGCGAGAAGGCACAUGAGGAUCACCCAUGUAAUGG [jl-ex4-4.27 ViennaUCT mod] (Eterna round: R97, puzzle: Exclusion 4) | 0.249 µM | 0.91 µM |  |  |  | 
ACCUGGUGAGGAUAUGUUGGGAAUGAUCCUUUCGGAUUGACACAGAAGGCACAUGAGGAUCACCCAUGUGGGUG [Eternabot (L1) Solution 70] (Eterna round: R97, puzzle: Exclusion 4) | 0.332 µM | 0.591 µM |  |  |  | 
CCCAGUUAGUGAGGAUAUCUUACAUGAGGAUCACCCAUGUAAUAAAUGAGGAUUUCGGGUGUCUAAGAGAAGGCACGGAUAGGC [Ostracism 25 - Jieux - Exclusion NG 2] (Eterna round: R96, puzzle: Exclusion NG 2) | 0.0271 µM | 0.027 µM |  | 0.0167 µM |  | 
AGGGACGGCUGAGGAUAUAUGUAGAGUGAGAUAGUAGAAGGCAGACAUGAGGAUCACCCAUGUAUCGGUCCUCAUAUCUCGUAU [Default title] (Eterna round: R96, puzzle: Exclusion NG 1) | 0.0143 µM | 0.0177 µM |  | 0.0159 µM |  | 
GAGGAGCAAGGAUAUACGAGGAUAUGGUAGGUUGGAGAGUGACAUGAGGAUCACCCAUGUAGAAGGUGCGAGGG [JR_Exclu2_Sub098] (puzzle: Exclusion 2) |  |  | 0.0555 µM |  |  | 
GGUUGGCGAGGAUAUACAUGAGGAUCACCCAUGUGAGAGAAAAACGUGAGGAAGAAAAGUAGAAGGCGCUGACG [salish99_ex3_r3_025] (puzzle: Exclusion 3) |  |  | 0.0816 µM |  | 0.0364 µM | 0.0656 µM
UUUUUGGUAGGAUAUACAUGAGGAUCACCCAUGUCCCACCCGUUACCUAUGACCAUAUGUAGAAGGACCAUUUC [Exy#11] (Eterna round: R97, puzzle: Exclusion 3) | 0.0246 µM | 0.0213 µM |  |  |  | 
AGUAGAUCUACGCUUGCGUGGAUCUGCAAUGCAAGUGUUACAUGAGGAUCACCCAUGUCCUCAUUUGCUCGUCUUAG [JL turnoff v2 99.05] (puzzle: Sensor v3, turn-off variant 2) |  |  | 0.108 µM |  | 0.0414 µM | 0.0454 µM
CCGGAAAGGAAGGAUAUGCUAGACGAAAGUCUAGCAGAAGGUCCUACAUGAGGAUCACCCAUGUGGUCCUCCGG [Eli x6 4.06] (Eterna round: R97, puzzle: Exclusion 6) | 0.298 µM | 1.47 µM |  |  |  | 
ACAUGAGGAUCACCCAUGUCCGGCUGGUCUGUUUCGGCUGUCGAGGAUAUAGUUCGGUGUUCGCGCUAGAAGGCGGGAGCUGGC [Aenatbe mod 59] (Eterna round: R96, puzzle: Exclusion NG 3) | 0.111 µM | 0.0824 µM |  | 0.0565 µM |  | 
GUCAGCUCGUCAGGAUAUACAUGAGGAUCACCCAUGUGAUCAAUAGCAGCUUCGGCUGCAUACAUGUAGAAGGGACGAGCUGAU [ENG2/6-B2] (Eterna round: R96, puzzle: Exclusion NG 2) | 0.195 µM | 0.16 µM |  | 0.0153 µM |  | 

Sequence | apparent KD of MS2 coat protein (input ligand: FMN 200 uM) | apparent KD of MS2 coat protein (input ligand: none) | apparent KD of MS2 coat protein [1] | apparent KD of MS2 coat protein [2] | apparent KD of MS2 coat protein [3] | apparent KD of MS2 coat protein [4]
UGGGUUCUCCAUAGAAGUAACAUGAGGAUCACCCAUGUAGGGCAAGUUUUUUGCUCGUCAUAGGUUGUGGGUUUGGA [JR_SV3TOV1_Sub018] (puzzle: Sensor v3, turn-off variant 1) |  |  | 0.491 µM |  | 0.578 µM | 0.66 µM
GGCAAAGUAGGAUAUACAUGAGGAUCACCCAUGUUUCCAGAUGGCGUAGGUCUUCUUUGUAGAAGGGCUAUGCC [Ananinge] (Eterna round: R97, puzzle: Exclusion 3) | 0.0201 µM | 0.0152 µM |  |  |  | 
UAUUAGCAAGUGAGAUCCCACAUGAGGAUCACCCAUGUGCUCGUCUUAUAAGGUACUGUGACGAUAGUCACGGUACC [Mat - Sensor, turn-off var - Eli Mod - D1] (Eterna round: R97, puzzle: Sensor, turn-off variant 1) | 0.0499 µM | 0.049 µM |  |  |  | 
CAGCUGUCAGGAUAUCGUGCAUACAACGAAAGUUCUAUGUGCGAGAAGGGACAUGAGGAUCACCCAUGUAAACG [Omei Ex4 A26] (Eterna round: R97, puzzle: Exclusion 4) | 0.101 µM | 0.0574 µM |  |  |  | 
GAUUACUGCAAGCUUUGGAACAUGAGGAUCACCCAUGUUCGUCUUAUUGAUCUAGGUACGCUGACGUACCUAGAUCU [JL-sv1-2.30 Brourd mod] (puzzle: Sensor v3, turn-off variant 1) |  |  | 0.0162 µM |  | 0.0155 µM | 0.0136 µM
GGUUGGCGAGGAUAUACAUGAGGAUCACCCAUGUGAGAAAAUAAGUGAGGAAAGAAAAGUAGAAGGCGCUGACG [Mat - Exclusion 3 - Mod of Salish D53] (puzzle: Exclusion 3) |  |  | 0.0558 µM |  | 0.57 µM | 0.0371 µM
AGUGUGUGGCAGGAUAUUCUAAUCGUGAGUCGGGAAGAAGGGUCUACAUGAGGAUCACCCAUGUGAGCGGUUGA [Ex6 #45] (Eterna round: R97, puzzle: Exclusion 6) | 0.219 µM | 0.245 µM |  |  |  | 
CUAGCGAAUGUAGGAUAUCGGACUGUUUCAGUCUGAGAAGGACAUGAGGAUCACCCAUGUAUAGCUACGUGAGUAGCACGCUAG [JL ENG1 3.90] (Eterna round: R96, puzzle: Exclusion NG 1) | 0.0276 µM | 0.0217 µM |  | 0.0161 µM |  | 
AGCCUGCAAGUAAGGAUAUGAAGUUAAAAGAACGGUCAGAAGGUACUUGAGGAUCACCCAAGUACGGGAGCGUG [Teuscema] (Eterna round: R97, puzzle: Brourd's mod of Exclusion 4) | 0.041 µM | 0.0163 µM |  |  |  | 
UUUAUAAUUUCAAUCUUCGCCAACAAACUUACGCUGGCCACAUGAGGAUCACCCAUGUUUUUUGUUCGUUUUAUUCU [Veorenxere] (Eterna round: R96, puzzle: Sensor v3, turn-off variant 2) | 0.025 µM | 0.0271 µM |  | 0.0622 µM |  | 
AAUGCCGUAGGAUAUAUAUGGCAGAUCGCACGUCCUGAAAGACAUGAGGAUCACCCAUGUAGAAGGGCGGAAAC [Ceisisan] (puzzle: Exclusion 2) |  |  | 0.0141 µM |  |  | 
GUGAAGAAGUUAGUGGCCUACAUGAGGAUCACCCAUGUGAGGGAAAUGUCGAGGCGGAGGUUGUGUGCUCGUCUGUA [JR_SV3TOV1_Sub041] (puzzle: Sensor v3, turn-off variant 1) |  |  | 0.0276 µM |  | 0.0257 µM | 0.0264 µM
GUAUUUUGAGGAUAUACAUGAGGAUCACCCAUGUGUCGUAGCGCCAGCCUUAAUACGUGUAGAAGGCAGAAUGU [Eternabot (L1) Solution 75] (Eterna round: R97, puzzle: Exclusion 3) | 0.02 µM | 0.034 µM |  |  |  | 
GCACUGCGAGGAUAUACAUGAGGAUCACCCAUGUAUCGGUAGUCAAGGUUAAUUUAAGGUAGAAGGCGCGUAUU [JR_Ex3_Sub006] (Eterna round: R97, puzzle: Exclusion 3) | 0.0239 µM | 0.0227 µM |  |  |  | 
AGAGAAUAGUCAGGAUAUGUGAAUAGAUAGAGAACAGAAGGGACACAUGAGGAUCACCCAUGUGAAGUCUUGAGGCUGCGUGGA [Prohibition 21 - Jieux - Exclusion NG 1] (Eterna round: R96, puzzle: Exclusion NG 1) | 0.0221 µM | 0.0203 µM |  | 0.0175 µM |  | 
UAGGAACGAGGAUAUACACCUGCAAGUGGUGUGGGUACACCACAUGAGGAUCACCCAUGUAGAAGGCGUACCAA [Lelebi] (Eterna round: R97, puzzle: Exclusion 2) | 0.0573 µM | 0.0123 µM |  |  |  | 
AAAUAGCUAGAGGAUAUUGGAUAGGAUUUACUACGAGAAGGUUAGACAUGAGGAUCACCCAUGUUGUGUUGGGA [EX6 #18] (Eterna round: R97, puzzle: Exclusion 6) | 0.0553 µM | 0.0534 µM |  |  |  | 
